Data: US20020146411A1, “Anticoagulant agents useful in treatment of thrombosis” (SmithKline Beecham Corporation, priority 1996, published 2002)
Where a chain is given by its changes, count along the chain named.

B1: murine anti-Factor IX monoclonal antibody BC2 (antibody, mouse IgG2a, V domains shown)
VH: QIQLVQSGPELKKPGETVKISCKASGYTFTNYGMNWVKQAPGKGLKWMGWINTRNGKSTYVDDFKGRFAFSLESSASTANLQIDNLKDEDTATYFCTREGNMDGYFPFTYWGQGTLVTVSA
VL: QIVLSQSPAILSASPGEKVTMTCRASSSVNYMHWYQQKPGSSPKPWIYATSNLASGVPARFSGSGSGTSYSLTISRVEAEDAATYYCQQWSINPRTFGGGTKLEIKR
B2: humanized anti-Factor IX monoclonal antibody SB 249417 (antibody, V domains shown)
VH: QVQLVQSGSELKKPGASVKVSCKASGYTFTNYGMNWVRQAPGQGLKWMGWINTRNGKSTYVDDFKGRFVFSLDSSVSTAYLQISSLKADDTAVYYCTREGNMDGYFPFTYWGQGTLVTVSS
VL: QIVLTQSPSSLSASVGDRVTITCRASSSVNYMHWYQQKPGKAPKPWIYATSNLASGVPSRFSGSGSGTDYTFTISSLQPEDIATYYCQQWSINPRTFGQGTKVEIKR
B3: humanized anti-Factor IX monoclonal antibody SB 257732 (antibody, V domains shown)
VH: B2 VH with V2I, K46E, S74T, D89E, Y95F
VL: B2 VL with F72L, I82F, Q99G, V103L
B4: humanized anti-Factor IX monoclonal antibody SB 249416 (antibody, V domains shown)
VH: B2 VH
VL: EIVLTQSPATLSLSPGERATLSCRASSSVNYMHWYQQRPGQAPKPWIYATSNLASGVPARFSGSGSGTDYTLTISSLEPEDFAVYYCQQWSINPRTFGGGTKVEIKR
B5: humanized anti-Factor IX monoclonal antibody SB 249413 (antibody, V domains shown)
VH: B2 VH with K46E, S74T, T97A
VL: B4 VL with K44R, P45L, W46L, V57I, Y70F
B6: humanized anti-Factor IX monoclonal antibody SB 257731 (antibody, V domains shown)
VH: B2 VH
VL: QIVLTQSPATLSLSPGERATLSCRASSSVNYMHWYQQRPGQAPKPWIYATSNLASGVPARFSGSGSGTDYTLTISSLEPEDFAVYYCQQWSINPRTFGGGTKVEIK
B7: humanized anti-Factor IX monoclonal antibody SB 249415 (antibody, V domains shown)
VH: B2 VH
VL: B4 VL with Y70F

What was measured:
human Factor IX (human) = human Factor IX (human) (UniProt P00740); assay: cell-based or functional assay
Chain of human Factor IX (human) (P00740 47-461 limits assumed): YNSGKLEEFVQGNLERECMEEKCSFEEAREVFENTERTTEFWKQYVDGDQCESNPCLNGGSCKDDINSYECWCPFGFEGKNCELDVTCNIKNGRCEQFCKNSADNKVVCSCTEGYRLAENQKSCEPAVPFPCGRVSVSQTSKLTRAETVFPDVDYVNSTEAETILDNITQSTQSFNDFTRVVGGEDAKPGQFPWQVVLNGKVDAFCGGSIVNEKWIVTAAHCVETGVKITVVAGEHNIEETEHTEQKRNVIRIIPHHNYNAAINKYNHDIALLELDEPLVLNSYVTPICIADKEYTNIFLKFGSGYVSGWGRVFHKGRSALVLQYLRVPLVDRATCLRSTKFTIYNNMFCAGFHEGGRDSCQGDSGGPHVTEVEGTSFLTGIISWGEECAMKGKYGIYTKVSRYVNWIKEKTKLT

[1] = molecular target: recombinant human Factor IX (rhFIX, Genetics Institute) (human) (UniProt P00740); assay: isothermal titration calorimetry
Chain of recombinant human Factor IX (rhFIX, Genetics Institute) (human) (P00740 47-461 limits assumed): as above

[2] = molecular target: recombinant human Factor IX (rhFIX, Genetics Institute) (human) (UniProt P00740); assay: titration calorimetry, 37° C., 10 mM CaCl2
[3] = molecular target: recombinant human Factor IX (rhFIX, Genetics Institute) (human) (UniProt P00740); assay: isothermal titration calorimetry, 25° C.
[4] = molecular target: recombinant human Factor IX (rhFIX, Genetics Institute) (human) (UniProt P00740); assay: titration calorimetry, 25° C. (calculated from the van't Hoff equation), 10 mM CaCl2
[5] = molecular target: recombinant human Factor IX (rhFIX, Genetics Institute) (human) (UniProt P00740); assay: titration calorimetry
[6] = molecular target: recombinant human Factor IX (rhFIX, Genetics Institute) (human) (UniProt P00740); assay: biosensor (BIAcore)
[7] = molecular target: recombinant human Factor IX (rhFIX, Genetics Institute) (human) (UniProt P00740); assay: BIAcore, calculated from kdiss and kass
[8] = molecular target: recombinant human Factor IX (rhFIX, Genetics Institute) (human) (UniProt P00740); assay: titration microcalorimetry, 106 uM FIX injected into 2 uM mAb
[9] = molecular target: recombinant human Factor IX (rhFIX, Genetics Institute) (human) (UniProt P00740); assay: BIAcore, antibody captured on immobilised protein A, rhFIX at 49 nM, 5 mM Ca2+
[10] = molecular target: recombinant human Factor IX (rhFIX, Genetics Institute) (human) (UniProt P00740); assay: BIAcore kinetics of Factor IX binding
[11] = molecular target: recombinant human Factor IX (rhFIX, Genetics Institute) (human) (UniProt P00740); assay: BIAcore, calculated

Row | Binder | Kd [2] [nM] | Kd [4] [nM] | Molar Binding Ratio FIX/mAb [5] [FIX/mAb] | koff [10] [s⁻¹] | kon [10] [M⁻¹ s⁻¹] | Kd [11] [nM] | also measured
1 | B1 |  |  |  |  |  |  | IC50, nM (aPTT of human plasma) (human Factor IX (human)): 50 nM; aPTT at saturating antibody (human Factor IX (human)): 90 s; aPTTmax / aPTTnormal × 100 % (human Factor IX (human)): 350%
2 | B2 | 12 | 4 | 1.5 |  |  |  | Stoichiometry of Factor IX Binding (moles Factor IX per mole mAb) [1]: 1.5; Kd [3]: 4 nM; Kd [6]: 2 nM; koff [6]: 0.0004 s⁻¹; kon [6]: 200000 M⁻¹ s⁻¹; Kd [7]: 1.9 nM; molar binding ratio at the equivalence point [8]: 2 FIX per mAb; koff [9]: 0.00041 s⁻¹; kon [9]: 200000 M⁻¹ s⁻¹
3 | B3 | 9 | 4 | 1.8 | 0.0012 | 1.1e+06 | 1.5 | 
4 | B4 |  |  |  | 0.00041 | 520000 | 0.8 | 
5 | B5 | 12 | 6 | 1.9 | 0.0028 | 650000 | 3.7 to 5.1 | 
6 | B6 |  |  |  | 0.00099 | 920000 | 1.1 | 
7 | B7 | 7 | 3 | 1.7 | 0.00018 | 750000 | 1.1 to 2.3 | 
